# Results as given in publication PMC6333830.
# Assays:
# [1] = biological target: KRAS4B GTPase domain (residues 1-173, C118S), un-phosphorylated (human) (UniProt P01116)
# [2] = biological target: Src-phosphorylated 15N-KRAS (residues 1-173, C118S), not separated (human) (UniProt P01116)
# [3] = biological target: KRAS4B GTPase domain (residues 1-173, C118S), un-phosphorylated (human) (UniProt P01116); remark: listed apart in the source
# [4] = biological target: Src-phosphorylated 15N-KRAS (residues 1-173, C118S), not separated (human) (UniProt P01116); remark: listed apart in the source
"acceleration of the rate of GTP hydrolysis of KRAS by the RASA1 GAP domain at a 1:3000 molar ratio, real-time NMR [1] [%]","increase of the rate of GTP hydrolysis of pKRAS by the RASA1 GAP domain at a 1:3000 molar ratio, real-time NMR [2] [%]","fold acceleration of nucleotide exchange (GDP to GTPγS) of KRAS by SOS^cat at a ratio of 1:600, real-time NMR [3] [fold]","fold acceleration of nucleotide exchange (GDP to GTPγS) of pKRAS by SOS^cat at a ratio of 1:600, real-time NMR [4] [fold]",Substance
> 300,< 20,,,GAP domain of human RASA1 (residues 715-1074) (domain or fragment)
,,17,< 3,"catalytic domain of Son of Sevenless 1 (SOS^cat, residues 564-1049) (from UniProt Q07889 564-1049) (domain or fragment)"
